Measurements reported in article PMC2756588.

T1: Pin3, Q06449
T1 sequence (Q06449 53-122, looked up): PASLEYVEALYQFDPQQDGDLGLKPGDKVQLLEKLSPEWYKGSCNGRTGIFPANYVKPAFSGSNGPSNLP

T2: Lsb1, P53281
T2 sequence (P53281 45-122, looked up): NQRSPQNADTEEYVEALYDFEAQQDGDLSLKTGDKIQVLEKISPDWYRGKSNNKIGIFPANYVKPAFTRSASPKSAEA

T3: Bzz1-2, P38822
T3 sequence (P38822 568-633, looked up): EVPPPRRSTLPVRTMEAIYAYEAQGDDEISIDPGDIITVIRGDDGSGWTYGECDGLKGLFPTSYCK

T4: Fus1, P11710
T4 sequence (P11710 432-512, looked up): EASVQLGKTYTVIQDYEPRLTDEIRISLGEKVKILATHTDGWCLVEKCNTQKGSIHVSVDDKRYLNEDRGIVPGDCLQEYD

T5: Hof1, Q05080
T5 sequence (Q05080 590-669, looked up): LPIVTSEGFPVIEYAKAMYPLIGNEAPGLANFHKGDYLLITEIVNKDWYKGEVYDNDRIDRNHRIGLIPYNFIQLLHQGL

T6: Boi1, P38041
T6 sequence (P38041 1-86, looked up): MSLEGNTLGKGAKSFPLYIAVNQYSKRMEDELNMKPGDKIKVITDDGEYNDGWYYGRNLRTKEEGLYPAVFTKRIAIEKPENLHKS

T7: Bbc1, P47068
T7 sequence (P47068 1-78, looked up): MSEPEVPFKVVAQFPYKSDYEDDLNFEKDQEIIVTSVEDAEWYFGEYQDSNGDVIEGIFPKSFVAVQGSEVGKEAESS

T8: Lsb4, P32793
T8 sequence (P32793 402-468, looked up): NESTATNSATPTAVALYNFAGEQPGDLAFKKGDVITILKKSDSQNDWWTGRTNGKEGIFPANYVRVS

T9: Sla1-2, P32790
T9 sequence (P32790 60-140, looked up): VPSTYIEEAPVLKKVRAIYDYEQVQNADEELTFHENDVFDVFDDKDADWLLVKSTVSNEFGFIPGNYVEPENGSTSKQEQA

T10: Pex13, P80667
T10 sequence (P80667 295-386, looked up): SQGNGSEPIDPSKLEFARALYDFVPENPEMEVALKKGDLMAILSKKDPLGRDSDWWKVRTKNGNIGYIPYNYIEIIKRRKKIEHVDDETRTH

T11: Nbp2, Q12163
T11 sequence (Q12163 103-180, looked up): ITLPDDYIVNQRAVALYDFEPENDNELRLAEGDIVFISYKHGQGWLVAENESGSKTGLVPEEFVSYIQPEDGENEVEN

T12: Lsb3, P43603
T12 sequence (P43603 385-451, looked up): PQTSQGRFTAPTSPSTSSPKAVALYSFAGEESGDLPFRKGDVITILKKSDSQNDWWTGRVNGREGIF

T13: Boi2, P39969
T13 sequence (P39969 32-116, looked up): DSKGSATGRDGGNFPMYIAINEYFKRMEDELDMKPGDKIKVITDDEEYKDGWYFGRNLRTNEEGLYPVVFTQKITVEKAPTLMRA

T14: Cdc25, P04821
T14 sequence (P04821 50-136, looked up): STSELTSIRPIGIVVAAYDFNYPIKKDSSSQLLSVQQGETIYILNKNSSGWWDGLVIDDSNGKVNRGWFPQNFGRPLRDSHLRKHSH

T15: Hse1, P38753
T15 sequence (P38753 208-285, looked up): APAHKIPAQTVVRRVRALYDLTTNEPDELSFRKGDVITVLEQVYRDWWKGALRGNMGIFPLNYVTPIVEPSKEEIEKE

T16: Cyk3, Q07533
T16 sequence (Q07533 1-83, looked up): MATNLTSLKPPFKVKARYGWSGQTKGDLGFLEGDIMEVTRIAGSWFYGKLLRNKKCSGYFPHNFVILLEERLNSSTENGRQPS

T17: Myo5, Q04439
T17 sequence (Q04439 1072-1160, looked up): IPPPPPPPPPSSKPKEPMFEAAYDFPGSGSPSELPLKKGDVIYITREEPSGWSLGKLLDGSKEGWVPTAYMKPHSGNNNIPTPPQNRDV

T18: Bzz1-1, P38822
T18 sequence (P38822 478-572, looked up): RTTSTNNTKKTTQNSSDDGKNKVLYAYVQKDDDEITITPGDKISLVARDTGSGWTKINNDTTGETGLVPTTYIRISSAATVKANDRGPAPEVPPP

T19: Abp1, P15891
T19 sequence (P15891 535-592, looked up): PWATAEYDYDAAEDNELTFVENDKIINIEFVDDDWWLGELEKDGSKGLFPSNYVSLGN

T20: Sla1-3, P32790
T20 sequence (P32790 344-424, looked up): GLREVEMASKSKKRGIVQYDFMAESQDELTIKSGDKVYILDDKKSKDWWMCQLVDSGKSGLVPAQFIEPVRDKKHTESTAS

T21: Bud14, P27637
T21 sequence (P27637 247-328, looked up): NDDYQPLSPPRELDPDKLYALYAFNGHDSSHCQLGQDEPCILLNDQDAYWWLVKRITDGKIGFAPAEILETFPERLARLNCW


target: T1, Pin3, Q06449; assay: SPOT array; conditions: median of control spots 2171

| SPOT intensity | Binder |
| --- | --- |
| 7 | RKRAPTPPAPSRSEK |
| 19 | FYHRPAPKPPVTKKV |
| 57 | NTMKKRPAPPSLPSL |

target: T2, Lsb1, P53281; assay: SPOT array; conditions: median of control spots 388

| SPOT intensity | Binder |
| --- | --- |
| 1290 | RKRAPTPPAPSRSEK |
| 63 | FYHRPAPKPPVTKKV |
| 52 | NTMKKRPAPPSLPSL |

target: GST; assay: SPOT array; conditions: median of control spots 978

| SPOT intensity | Binder |
| --- | --- |
| 1 | RKRAPTPPAPSRSEK |
| 0 | FYHRPAPKPPVTKKV |
| 0 | NTMKKRPAPPSLPSL |

target: T3, Bzz1-2, P38822; assay: SPOT array; conditions: median of control spots 4538

| SPOT intensity | Binder |
| --- | --- |
| 946 | RKRAPTPPAPSRSEK |
| 186 | FYHRPAPKPPVTKKV |
| 1440 | NTMKKRPAPPSLPSL |

target: T4, Fus1, P11710; assay: SPOT array; conditions: median of control spots 1200

| SPOT intensity | Binder |
| --- | --- |
| 14 | RKRAPTPPAPSRSEK |
| 0 | FYHRPAPKPPVTKKV |
| 0 | NTMKKRPAPPSLPSL |

target: T5, Hof1, Q05080; assay: SPOT array; conditions: median of control spots 4086

| SPOT intensity | Binder |
| --- | --- |
| 0 | RKRAPTPPAPSRSEK |
| 0 | FYHRPAPKPPVTKKV |
| 489 | NTMKKRPAPPSLPSL |

target: T6, Boi1, P38041; assay: SPOT array; conditions: median of control spots 1162

| SPOT intensity | Binder |
| --- | --- |
| 1 | RKRAPTPPAPSRSEK |
| 0 | FYHRPAPKPPVTKKV |
| 7 | NTMKKRPAPPSLPSL |

target: T7, Bbc1, P47068; assay: SPOT array; conditions: median of control spots 796

| SPOT intensity | Binder |
| --- | --- |
| 105 | RKRAPTPPAPSRSEK |
| 45 | FYHRPAPKPPVTKKV |
| 15 | NTMKKRPAPPSLPSL |

target: T8, Lsb4, P32793; assay: SPOT array; conditions: median of control spots 397

| SPOT intensity | Binder |
| --- | --- |
| 29 | RKRAPTPPAPSRSEK |
| 3 | FYHRPAPKPPVTKKV |
| 63 | NTMKKRPAPPSLPSL |

target: Bem1-2, P29366; assay: SPOT array; conditions: median of control spots 4347
Sequence (P29366 139-227): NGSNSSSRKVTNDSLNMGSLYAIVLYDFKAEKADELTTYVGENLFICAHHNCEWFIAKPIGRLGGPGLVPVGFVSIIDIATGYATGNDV

| SPOT intensity | Binder |
| --- | --- |
| 0 | RKRAPTPPAPSRSEK |
| 4210 | FYHRPAPKPPVTKKV |
| 56 | NTMKKRPAPPSLPSL |

target: T9, Sla1-2, P32790; assay: SPOT array; conditions: median of control spots 712

| SPOT intensity | Binder |
| --- | --- |
| 0 | RKRAPTPPAPSRSEK |
| 0 | FYHRPAPKPPVTKKV |
| 1 | NTMKKRPAPPSLPSL |

target: T10, Pex13, P80667; assay: SPOT array; conditions: median of control spots 1341

| SPOT intensity | Binder |
| --- | --- |
| 6 | RKRAPTPPAPSRSEK |
| 143 | FYHRPAPKPPVTKKV |
| 80 | NTMKKRPAPPSLPSL |

target: Sho1, P40073; assay: SPOT array; conditions: median of control spots 1148
Sequence (P40073 287-367): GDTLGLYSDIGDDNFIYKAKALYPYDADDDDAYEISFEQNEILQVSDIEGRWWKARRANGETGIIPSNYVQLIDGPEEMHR

| SPOT intensity | Binder |
| --- | --- |
| 99 | RKRAPTPPAPSRSEK |
| 8 | FYHRPAPKPPVTKKV |
| 95 | NTMKKRPAPPSLPSL |

target: T11, Nbp2, Q12163; assay: SPOT array; conditions: median of control spots 357

| SPOT intensity | Binder |
| --- | --- |
| 283 | RKRAPTPPAPSRSEK |
| 314 | FYHRPAPKPPVTKKV |
| 120 | NTMKKRPAPPSLPSL |

target: T12, Lsb3, P43603; assay: SPOT array; conditions: median of control spots 406

| SPOT intensity | Binder |
| --- | --- |
| 8 | RKRAPTPPAPSRSEK |
| 5 | FYHRPAPKPPVTKKV |
| 12 | NTMKKRPAPPSLPSL |

target: Rvs167, P39743; assay: SPOT array; conditions: median of control spots 2707
Sequence (P39743 419-482): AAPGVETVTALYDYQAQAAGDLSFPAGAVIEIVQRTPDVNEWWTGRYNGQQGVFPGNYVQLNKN

| SPOT intensity | Binder |
| --- | --- |
| 9 | RKRAPTPPAPSRSEK |
| 0 | FYHRPAPKPPVTKKV |
| 9 | NTMKKRPAPPSLPSL |

target: T13, Boi2, P39969; assay: SPOT array; conditions: median of control spots 1161

| SPOT intensity | Binder |
| --- | --- |
| 0 | RKRAPTPPAPSRSEK |
| 0 | FYHRPAPKPPVTKKV |
| 2 | NTMKKRPAPPSLPSL |

target: Bem1-1, P29366; assay: SPOT array; conditions: median of control spots 4282
Sequence (P29366 55-141): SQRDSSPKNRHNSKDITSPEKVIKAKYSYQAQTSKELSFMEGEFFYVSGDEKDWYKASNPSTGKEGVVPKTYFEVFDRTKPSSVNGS

| SPOT intensity | Binder |
| --- | --- |
| 1 | RKRAPTPPAPSRSEK |
| 0 | FYHRPAPKPPVTKKV |
| 0 | NTMKKRPAPPSLPSL |

target: T14, Cdc25, P04821; assay: SPOT array; conditions: median of control spots 969

| SPOT intensity | Binder |
| --- | --- |
| 15 | RKRAPTPPAPSRSEK |
| 0 | FYHRPAPKPPVTKKV |
| 58 | NTMKKRPAPPSLPSL |

target: T15, Hse1, P38753; assay: SPOT array; conditions: median of control spots 1727

| SPOT intensity | Binder |
| --- | --- |
| 3 | RKRAPTPPAPSRSEK |
| 78 | FYHRPAPKPPVTKKV |
| 53 | NTMKKRPAPPSLPSL |

target: T16, Cyk3, Q07533; assay: SPOT array; conditions: median of control spots 1451

| SPOT intensity | Binder |
| --- | --- |
| 1 | RKRAPTPPAPSRSEK |
| 0 | FYHRPAPKPPVTKKV |
| 1 | NTMKKRPAPPSLPSL |

target: T17, Myo5, Q04439; assay: SPOT array; conditions: median of control spots 471

| SPOT intensity | Binder |
| --- | --- |
| 0 | RKRAPTPPAPSRSEK |
| 12 | FYHRPAPKPPVTKKV |
| 115 | NTMKKRPAPPSLPSL |

target: Myo3, P36006; assay: SPOT array; conditions: median of control spots 468

| SPOT intensity | Binder |
| --- | --- |
| 20 | RKRAPTPPAPSRSEK |
| 37 | FYHRPAPKPPVTKKV |
| 99 | NTMKKRPAPPSLPSL |

target: T18, Bzz1-1, P38822; assay: SPOT array; conditions: median of control spots 4446

| SPOT intensity | Binder |
| --- | --- |
| 27 | RKRAPTPPAPSRSEK |
| 16 | FYHRPAPKPPVTKKV |
| 60 | NTMKKRPAPPSLPSL |

target: T19, Abp1, P15891; assay: SPOT array; conditions: median of control spots 935

| SPOT intensity | Binder |
| --- | --- |
| 274 | RKRAPTPPAPSRSEK |
| 114 | FYHRPAPKPPVTKKV |
| 205 | NTMKKRPAPPSLPSL |

target: T20, Sla1-3, P32790; assay: SPOT array; conditions: median of control spots 5475

| SPOT intensity | Binder |
| --- | --- |
| 24 | RKRAPTPPAPSRSEK |
| 2040 | FYHRPAPKPPVTKKV |
| 11 | NTMKKRPAPPSLPSL |

target: T21, Bud14, P27637; assay: SPOT array; conditions: median of control spots 956

| SPOT intensity | Binder |
| --- | --- |
| 6 | RKRAPTPPAPSRSEK |
| 0 | FYHRPAPKPPVTKKV |
| 21 | NTMKKRPAPPSLPSL |
